From article PMC4414916 (Biochemistry, 2015)

Tests used:
[1] = tested on: GLIC–nAChα7–ICD chimeras and wild-type GLIC; assay type: cell-based, G. violaceus GLIC / human nAChRα7; details: pH 7.5 to 5, after 48 h
GLIC–Glyα1–ICD chimeras = assay: Proton concentration–response; assay type: cell-based, G. violaceus GLIC / rat Glyα1; details: proton activation (pH50), GLIC–Glyα1–ICD set, TEVC, −60 mV, ± standard error
[2] = tested on: GLIC–GABAAρ1–ICD chimeras; assay: Proton concentration–response; assay type: cell-based, G. violaceus GLIC / human GABAAρ1; details: proton activation (pH50), GLIC–GABAAρ1–ICD set, TEVC, −60 mV, ± standard error
GLIC–nAChα7–ICD chimeras = assay: Proton concentration–response; assay type: cell-based, G. violaceus GLIC / human nAChRα7; details: proton activation (pH50), GLIC–nAChα7–ICD set, TEVC, −60 mV, ± standard error

B1: WT GLIC: wild-type Gloeobacter violaceus proton-gated pentameric ligand-gated ion channel (protein)
chain: QDMVSPPPPIADEPLTVNTGIYLIECYSLDDKAETFKVNAFLSLSWKDRRLAFDPVRSGVRVKTYEPEAIWIPEIRFVNVENARDADVVDISVSPDGTVQYLERFSARVLSPLDFRRYPFDSQTLHIYLIVRSVDTRNIVLAVDLEKVGKNDDVFLTGWDIESFTAVVKPANFALEDRLESKLDYQLRISRQYFSYIPNIILPMLFILFISWTAFWSTSYEANVTLVVSTLIAHIAFNILVETNLPKTPYMTYTGAIIFMIYLFYFVAVIEVTVQHYLKVESQPARAASITRASRIAFPVVFLLANIILAFLFFGF
modifications: left off: FLAG, C-terminal, state not stated
effect of RIC-3 co-expression on current amplitudes [1]: did not alter | −log EC50 (GLIC–Glyα1–ICD chimeras): 5.81 ± 0.05 | −log EC50 [2]: 5.81 ± 0.05 | −log EC50 (GLIC–nAChα7–ICD chimeras): 5.81 ± 0.05
